Measured values published in paper PMC3773880.

Molecular target: Rgps of P. gingivalis HG66 (all gingipain activity released in soluble, non-glycosylated form into media)

B1: PD_(RgpB), recombinant N-terminal prodomain of RgpB, P95493 25-229 (domain or fragment)
chain: GPLGSQPAERGRNPQVRLLSAEQSMSKVQFRMDNLQFTGVQTSKGVAQVPTFTEGVNISEKGTPILPILSRSLAVSETRAMKVEVVSSKFIEKKDVLIAPSKGVISRAENPDQIPYVYGQSYNEDKFFPGEIATLSDPFILRDVRGQVVNFAPLQYNPVTKTLRIYTEIVVAVSETAEAGQNTISLVKNSTFTGFEDIYKSVFMNYEATR
Question: Which IC50 of inhibition of Rgp activity (L-BAPNA): HG66 (cell-free culture medium) does the source give for B1 here?
Answer: 12 nM

Question: What about the IC50 of inhibition of Rgp activity (L-BAPNA): HG66 (whole culture) of the same binder?
Answer: 116 nM
